Measurements as given in US20210246218A1 (LYVGEN BIOPHARMA SUZHOU, published 2021).

Assays:
[1] = biological target: T1, recombinant human CD137 receptor protein (human, UniProt Q07011 24-186); assay: ELISA, clone 3712-IgG1v coated, huCD137 titrated (EC50 is a concentration of the CD137 protein); full sigmoid, plateau about 2.2
T1 construct: Coated on ELISA plates; also called recombinant human CD137 protein

[2] = biological target: T1, recombinant human CD137 receptor protein; assay: ELISA, huCD137 coated, clone 3712 titrated; full sigmoid, plateau about 1.5
Method: (§1) For the data shown in FIGS. 16C-D, chimeric CD137 receptor protein samples were diluted in DPBS to 5 μg/mL and then coated onto an ELISA plate (Corning, Catalog number: 9018, high binding) at 50 μL (0.25 μg) per well, and incubated at 4° C. overnight. The plate was decanted and washed once; assay diluent was added at 200 μL/well. After a 1-hour incubation at room temperature, the plate was washed with PBST one time. […] The plate was incubated 1 hour at room temperature and then washed three times with PBST. Goat anti-human IgG-H+L HRP-conjugated at 1:100,000 dilution or goat anti-mouse IgG (H+L) secondary antibody, HRP, 10 at 1:50,000 dilution was added to the plate at 100 μL/well. The plate was incubated 1 hour at room temperature followed by washing with PBST four times. The TMB substrate solution was added 100 μL/well. The color was permitted to develop for 15 minutes and then 100 μL/well 2N H2SO4 was added to terminate the reaction. Absorbance at 450 nm and 620 nm was determined by a Tecan F200 Pro reader.

Ly052 = biological target: T2, Ly052; assay: ELISA, CD137 protein coated, clone 3712 titrated; flat curve (see non_binding)
T2 chain: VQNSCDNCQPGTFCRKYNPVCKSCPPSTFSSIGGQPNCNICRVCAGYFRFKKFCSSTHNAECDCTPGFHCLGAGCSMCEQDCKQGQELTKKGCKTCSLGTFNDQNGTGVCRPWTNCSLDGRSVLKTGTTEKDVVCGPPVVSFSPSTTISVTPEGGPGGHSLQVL
Method: as §1

huCD137-C6His = biological target: T3, huCD137-C6His (human, UniProt Q07011 24-186); assay: SPR (Biacore T200), huCD137-C6His immobilised, antibody as analyte, 1:1 model, 25 °C
T3 construct: Immobilised by amine coupling on the sensor chip; also called human CD137 protein (Biacore ligand); not shown: C-terminal 6xHis tag by the name C6His
Method: Flow cells of a CMS sensor chip (GE Healthcare Life Sciences) were activated with freshly mixed 50 mmol/L NHS and 200 mmol/L EDC for 420 seconds (10 μL/min). Then, huCD137-C6His in 10 mmol/L NaAC (pH 5.0) was injected onto the activated flow cell (10 μL/min) with HBS-EP (10 mM HEPES, 150 mM NaCl, 3 mM EDTA and 0.05% P20, pH 7.4) as the running buffer. The remaining active coupling sites were blocked with a 420 second injection of 1 mol/L ethanolamine The measurement was performed under 25° C., and HBS-EP was used as the running buffer. An injection of a tested analyte and surface regeneration of the CMS sensor chip were included in each running cycle. […] Buffer flow was maintained for approximately 180 seconds for dissociation. To remove the tested antibodies, an injection of 10 mM glycine-HCl for approximately 30 seconds was used for regeneration. The above procedures were repeated for each concentration of serially diluted tested antibody. The raw data of the surface plasmon resonance experiments were evaluated using Biacore T200 evaluation software 3.1 with a 1:1 binding model. Flow cell 1 was used as the reference flow cell.

CD137 protein = biological target: T4, CD137 protein (UniProt Q07011 24-186, limits assumed); assay: competition ELISA with CD137L: CD137 receptor coated, antibody titrated, CD137L added; A450-A620 falls from about 1.25 to about 0.64 (midpoint of an inhibition curve, called EC50 in the sheet's table)
T4 construct: also called CD137 antigen; CD137 receptor
Method: CD137 receptor was diluted in DPBS to 1 μg/mL, and then coated onto an ELISA plate (Corning, Catalog number: 9018, high binding) with a volume of 50 μL (0.05 μg) per well, and incubated at 4° C. overnight. The plate was decanted and washed once; assay diluent was added 200 μL/well. […] The diluted CD137 receptor was added to the assay plate, 50 μL/well, in duplicate. The plate was incubated one hour at room temperature. […] The plate was incubated one hour at room temperature and then washed three times with PBST. Goat anti-human IgG-H+L HRP conjugated at 1:100,000 20 dilution was added to the plate at 100 μL/well. The plate was then incubated one hour at room temperature followed by washing with PBST four times. The TMB substrate solution was added at 100 μL/well. The color was allowed to develop for 15 minutes, and was stopped with 100 μL/well 2N H2SO4. Absorbance at 450 nm and 620 nm was determined by a Tecan F200 Pro reader.

Ly110 = biological target: T5, Ly110; assay: ELISA, CD137 protein coated, clone 3712 titrated; sigmoid with a low plateau of about 0.45 (huCD137 about 1.5)
T5 chain: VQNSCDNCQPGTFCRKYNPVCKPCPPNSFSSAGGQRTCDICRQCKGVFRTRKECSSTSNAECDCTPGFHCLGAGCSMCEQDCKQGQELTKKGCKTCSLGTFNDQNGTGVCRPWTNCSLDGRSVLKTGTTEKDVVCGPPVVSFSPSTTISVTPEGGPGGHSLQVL
Method: as §1

EC50 [1]: 0.0669 µg/mL
EC50 [2]: 0.0572 µg/mL
EC50 (Ly052): 0.000749 µg/mL
Kd (huCD137-C6His): 18.9 nM
koff (huCD137-C6His): 0.0138 s⁻¹
kon (huCD137-C6His): 730000 M⁻¹ s⁻¹
IC50 (CD137 protein): 0.0643 µg/mL
EC50 (Ly110): 0.0578 µg/mL
B1: Clone 3712-IgG1v (IgG1v/kappa) (antibody)
heavy: QVQLVQSGAEVKKPGASVKVSCKASGYTFAGFEMHWVRQAPGQGLEWMGAIDPKTGGTDYNQKFKDRVTMTRDTSISTAYMELSRLRSDDTAVYYCARDLGYFDVWGQGTLVTVSSASTKGPSVFPLAPSSKSTSGGTAALGCLVKDYFPEPVTVSWNSGALTSGVHTFPAVLQSSGLYSLSSVVTVPSSSLGTQTYICNVNHKPSNTKVDKKVEPKSCDKTHTCPPCPAPELLGPSVFLFPPKPKDTLMISRTPEVTCVVVDVEHEDPEVKFNWYVDGVEVHNAKTKPREEQYNSTYRVVSVLTVLHQDWLNGKEYKCKVSNKALPAPIEKTISKAKGQPREPQVYTLPPSREEMTKNQVSLTCLVKGFYPSDIAVEWESNGQPENNYKTTPPVLDSDGSFFLYSKLTVDKSRWQQGNVFSCSVMHEALHNHYTQKSLSLSPGK
light: DIQMTQSPSSLSASVGDRVTITCRASQDIRSNLNWYQQKPGGAVKLLIYYTSRLHSGVPSRFSGSGSGTDYTLTISSLQPEDFATYFCQQSEKLPRTFGGGTKVEIRRTVAAPSVFIFPPSDEQLKSGTASVVCLLNNFYPREAKVQWKVDNALQSGNSQESVTEQDSKDSTYSLSSTLTLSKADYEKHKVYACEVTHQGLSSPVTKSFNRGEC
notes: copies: 2 + 2
